The assay concerns the target mouse CX3CR1 (mouse). Description: flow cytometry titration on Jurkat cells transfected with mCX3CR1; goat anti-mIgG PE.

This note sets out measurements from patent publication US20220289854A1.

B1: 455.1C11 anti-mouse CX3CR1 monoclonal antibody (antibody, V domains shown)
VH: QVQLVETGGGLVRPGNSLKLSCVTSGFTFSNYRMHWLRQFPGKRLEWIAVIAFKSDKFGANYAESVKGRFAISRDDSKNSVYLEMSRLREEDTATYFCSRDGNGPFDYWGQGTTLTVSS
VL: DIVMSQSPSSLTVSVGEKVTMSCKSSQSLLYSGNQKSYLAWYQQKPGQSPRLLIYWASTRESGVPDRFTGSGSGTDFTLTISGVKAEDLAVYYCQRYYGYPRTFGGGTKLEIK
As usually defined, the EC50 is the midpoint of the concentration-response curve. A high value points to weaker potency. For the molecule B1, the concentration for a half-maximal effect (EC50) amounted to 0.102 µg/mL.
